Values quoted from earlier work, collected in article PMC4676407.

Biological target: Akt kinase domain kinase domain (Homo sapiens) (UniProt P31749)

Kd: > 5 mM
Substance: Akt C-terminal peptide C-terminus (from UniProt P31749)
